According to patent US11653679B2, “High-purity steviol glycosides” (PureCircle Sdn Bhd, priority 2014, dated 2023):

Assay: Directed evolution of UGT76G1, Rebaudioside D to Rebaudioside M, round 1 (Example 26)
Assay type: biochemical
Details: 100 μL fresh lysate, 0.5 mM Rebaudioside D, 30° C., pH 7.2
Outline: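 Conversion and initial rate were determined by HPLC with CAD detection on samples taken at 2, 4, 7 and 24 h. Reactions ran at 30 °C in 50 mM phosphate buffer pH 7.2 with lysate, Rebaudioside D (0.5 mM), UDP-glucose (2.5 mM) and MgCl2 (3 mM).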

Row | Molecule | conversion Reb D to Reb M after 24 h | initial rate
1 | UGT76G1var35: UGT76G1 variant, mutations T284L_F314S_S357N (protein, UniProt Q6VAB4 1-458, looked up, variant T284L F314S S357N) UDP-glycosyltransferase 76G1: MENKTETTVRRRRRIILFPVPFQGHINPILQLANVLYSKGFSITIFHTNFNKPKTSNYPHFTFRFILDNDPQDERISNLPTHGPLAGMRIPIINEHGADELRRELELLMLASEEDEEVSCLITDALWYFAQSVADSLNLRRLVLMTSSLFNFHAHVSLPQFDELGYLDPDDKTRLEEQASGFPMLKVKDIKSAYSNWQILKEILGKMIKQTKASSGVIWNSFKELEESELETVIREIPAPSFLIPLPKHLTASSSSLLDHDRTVFQWLDQQPPSSVLYVSFGSLSEVDEKDFLEIARGLVDSKQSFLWVVRPGSVKGSTWVEPLPDGFLGERGRIVKWVPQQEVLAHGAIGAFWTHNGWNSTLESVCEGVPMIFSDFGLDQPLNARYMSDVLKVGVYLENGWERGEIANAIRRVMVDEEGEYIRQNARVLKQKADVSLMKGGSSYESLESLVSYISSL | 0.5% | 1.8E+05 Reb M area/min
2 | UGT76G1var36: UGT76G1 variant, mutations F265L_L379A_V396F (protein, UniProt Q6VAB4 1-458, looked up, variant F265L L379A V396F) UDP-glycosyltransferase 76G1: MENKTETTVRRRRRIILFPVPFQGHINPILQLANVLYSKGFSITIFHTNFNKPKTSNYPHFTFRFILDNDPQDERISNLPTHGPLAGMRIPIINEHGADELRRELELLMLASEEDEEVSCLITDALWYFAQSVADSLNLRRLVLMTSSLFNFHAHVSLPQFDELGYLDPDDKTRLEEQASGFPMLKVKDIKSAYSNWQILKEILGKMIKQTKASSGVIWNSFKELEESELETVIREIPAPSFLIPLPKHLTASSSSLLDHDRTVLQWLDQQPPSSVLYVSFGSTSEVDEKDFLEIARGLVDSKQSFLWVVRPGFVKGSTWVEPLPDGFLGERGRIVKWVPQQEVLAHGAIGAFWTHSGWNSTLESVCEGVPMIFSDFGADQPLNARYMSDVLKVGFYLENGWERGEIANAIRRVMVDEEGEYIRQNARVLKQKADVSLMKGGSSYESLESLVSYISSL | 20.0% | 8.8E+06 Reb M area/min
3 | UGT76G1var41: UGT76G1 variant, mutations L246F_A385T_K393G (protein, UniProt Q6VAB4 1-458, looked up, variant L246F A385T K393G) UDP-glycosyltransferase 76G1: MENKTETTVRRRRRIILFPVPFQGHINPILQLANVLYSKGFSITIFHTNFNKPKTSNYPHFTFRFILDNDPQDERISNLPTHGPLAGMRIPIINEHGADELRRELELLMLASEEDEEVSCLITDALWYFAQSVADSLNLRRLVLMTSSLFNFHAHVSLPQFDELGYLDPDDKTRLEEQASGFPMLKVKDIKSAYSNWQILKEILGKMIKQTKASSGVIWNSFKELEESELETVIREIPAPSFLIPFPKHLTASSSSLLDHDRTVFQWLDQQPPSSVLYVSFGSTSEVDEKDFLEIARGLVDSKQSFLWVVRPGFVKGSTWVEPLPDGFLGERGRIVKWVPQQEVLAHGAIGAFWTHSGWNSTLESVCEGVPMIFSDFGLDQPLNTRYMSDVLGVGVYLENGWERGEIANAIRRVMVDEEGEYIRQNARVLKQKADVSLMKGGSSYESLESLVSYISSL | 0.8% | 1.4E+06 Reb M area/min
4 | UGT76G1var39: UGT76G1 variant, mutations F22Y_F41L_V366I (protein, UniProt Q6VAB4 1-458, looked up, variant F22Y F41L V366I) UDP-glycosyltransferase 76G1: MENKTETTVRRRRRIILFPVPYQGHINPILQLANVLYSKGLSITIFHTNFNKPKTSNYPHFTFRFILDNDPQDERISNLPTHGPLAGMRIPIINEHGADELRRELELLMLASEEDEEVSCLITDALWYFAQSVADSLNLRRLVLMTSSLFNFHAHVSLPQFDELGYLDPDDKTRLEEQASGFPMLKVKDIKSAYSNWQILKEILGKMIKQTKASSGVIWNSFKELEESELETVIREIPAPSFLIPLPKHLTASSSSLLDHDRTVFQWLDQQPPSSVLYVSFGSTSEVDEKDFLEIARGLVDSKQSFLWVVRPGFVKGSTWVEPLPDGFLGERGRIVKWVPQQEVLAHGAIGAFWTHSGWNSTLESICEGVPMIFSDFGLDQPLNARYMSDVLKVGVYLENGWERGEIANAIRRVMVDEEGEYIRQNARVLKQKADVSLMKGGSSYESLESLVSYISSL | 7.2% | 3.3E+06 Reb M area/min
5 | UGT76G1var40: UGT76G1 variant, mutations T263S_Q266E_S375R (protein, UniProt Q6VAB4 1-458, looked up, variant T263S Q266E S375R) UDP-glycosyltransferase 76G1: MENKTETTVRRRRRIILFPVPFQGHINPILQLANVLYSKGFSITIFHTNFNKPKTSNYPHFTFRFILDNDPQDERISNLPTHGPLAGMRIPIINEHGADELRRELELLMLASEEDEEVSCLITDALWYFAQSVADSLNLRRLVLMTSSLFNFHAHVSLPQFDELGYLDPDDKTRLEEQASGFPMLKVKDIKSAYSNWQILKEILGKMIKQTKASSGVIWNSFKELEESELETVIREIPAPSFLIPLPKHLTASSSSLLDHDRSVFEWLDQQPPSSVLYVSFGSTSEVDEKDFLEIARGLVDSKQSFLWVVRPGFVKGSTWVEPLPDGFLGERGRIVKWVPQQEVLAHGAIGAFWTHSGWNSTLESVCEGVPMIFRDFGLDQPLNARYMSDVLKVGVYLENGWERGEIANAIRRVMVDEEGEYIRQNARVLKQKADVSLMKGGSSYESLESLVSYISSL |  | 3.3E+07 Reb M area/min
6 | UGT76G1var37: UGT76G1 variant, mutations E229A_L379G_I407V (protein, UniProt Q6VAB4 1-458, looked up, variant E229A L379G I407V) UDP-glycosyltransferase 76G1: MENKTETTVRRRRRIILFPVPFQGHINPILQLANVLYSKGFSITIFHTNFNKPKTSNYPHFTFRFILDNDPQDERISNLPTHGPLAGMRIPIINEHGADELRRELELLMLASEEDEEVSCLITDALWYFAQSVADSLNLRRLVLMTSSLFNFHAHVSLPQFDELGYLDPDDKTRLEEQASGFPMLKVKDIKSAYSNWQILKEILGKMIKQTKASSGVIWNSFKELEESALETVIREIPAPSFLIPLPKHLTASSSSLLDHDRTVFQWLDQQPPSSVLYVSFGSTSEVDEKDFLEIARGLVDSKQSFLWVVRPGFVKGSTWVEPLPDGFLGERGRIVKWVPQQEVLAHGAIGAFWTHSGWNSTLESVCEGVPMIFSDFGGDQPLNARYMSDVLKVGVYLENGWERGEVANAIRRVMVDEEGEYIRQNARVLKQKADVSLMKGGSSYESLESLVSYISSL |  | 2.8E+07 Reb M area/min
7 | UGT76G1var38: UGT76G1 variant, mutations F41L_I295M_F377C (protein, UniProt Q6VAB4 1-458, looked up, variant F41L I295M F377C) UDP-glycosyltransferase 76G1: MENKTETTVRRRRRIILFPVPFQGHINPILQLANVLYSKGLSITIFHTNFNKPKTSNYPHFTFRFILDNDPQDERISNLPTHGPLAGMRIPIINEHGADELRRELELLMLASEEDEEVSCLITDALWYFAQSVADSLNLRRLVLMTSSLFNFHAHVSLPQFDELGYLDPDDKTRLEEQASGFPMLKVKDIKSAYSNWQILKEILGKMIKQTKASSGVIWNSFKELEESELETVIREIPAPSFLIPLPKHLTASSSSLLDHDRTVFQWLDQQPPSSVLYVSFGSTSEVDEKDFLEMARGLVDSKQSFLWVVRPGFVKGSTWVEPLPDGFLGERGRIVKWVPQQEVLAHGAIGAFWTHSGWNSTLESVCEGVPMIFSDCGLDQPLNARYMSDVLKVGVYLENGWERGEIANAIRRVMVDEEGEYIRQNARVLKQKADVSLMKGGSSYESLESLVSYISSL | 8.2% | 3.7E+06 Reb M area/min
